US20180079802A1 (VANDERBILT UNIVERSITY, published 2018)
Positions count from the first letter of the chain named.

B1: 2C2 (antibody, V domains shown)
VH: QVQLVQSGGGLVQPGRSLTLSCAASGFTFDVYAMHWVRQAPGKGLEWVAGISWNSGSVGYADSMKGRFTISRDNAKNSLYLQINSLRAEDTALYYCAKAFWFGELSGYGMDVWGQGTLVTVSS
VL: QAVVTQPPSASGFPGQSVTISCTGTSSDVGSYNYVSWYQQHPGKAPKLIIYAVTRRPSGVPERFSGSKSGNTASLTVSGLQAEDEADYYCTSYAGNNKDVFGTGTKVTVL
B2: 3B4 (antibody, V domains shown)
VH: QVQLEESGPTLVKPTQTLTLTCSFSGFSLTTTGVTVGWIRQPPGKALEWLALIYWDDDKRYSPSLKSRLTITKDTSKNQVVLTMTNMDPVDTATYYCAHSTGYYDSSGYRGALDAFAVWGQGTLVTVSS
VL: QIVVTQFPDSPAVSLGERATINCKSSQSVLYHSNNKNYLAWYQQKPGQPPNLLIYWASARQSGVPDRFSGSGSGTDFTLTISSLQAEDVAVYYCQQYYSTPYTFGQGTKLEIK
B3: 4N12 (antibody, V domains shown)
VH: QVQLVQSGAEVKKPGASVKVSCKVSGYILSKLSVHWVRQAPGKGLEWMGGSEREDGETVYAQKFQGRISLTEDTSIETAYMELSSLSSEDTAVYYCATGGFWSMIGGNGVDYWGQGTLVTVSS
VL: QAVVTQSPSSLPASVGDRVTITCRASQDIRNNLGWYQQKPGKAPERLIYGTSNLQSGVPSRFSGSGSGTEFTLTISSLQPEDFATYYCLQHNSYPPTFGRGTKVEIK
B4: 1L1 (antibody, V domains shown)
VH: QVQLVQSGPTLVKPTQTLTLTCTFSGFSLSISGVGVGWIRQPPGKALEWLALIYWDDDKRYSPSLKSRLTITKDTSENQVVLTMTNMDPVDTATYYCAHSMTKGGAIYGQAYFEYWGQGTLV
VL: PSPALEPDSDVGGYNYVSWYQQHPGKAPKLIIYDVTDRPSGVSNRFSASKSANTASLTISGLQAEDEADYYCSSYTSSST
B5: 2D12 (antibody, V domains shown)
VH: QVQLVQSGAEVKKPGASVKVSCKASGYSFNIYGISWVRQAPGQGLEWMGWISAYNGNTNYAQKLQGRVTMTTDTSTSTAYMELRSLRSDDTAVYYCARPLWGEFYYDIWGQGTLVTVSS
VL: QAVVTQSPGTLSLSPGERATLSCRASQSVSSGYSAWYQQKPGQAPRLLIYGASKRAAGIPDRFSGSGSGTDFTLTISRLEPEDFAVYYCQLFATSPPPFGQGTRLEIK
B6: 5O14 (antibody, V domains shown)
VH: QVQLVQSGGRVVQAGRSLRLSCAASGFTFSMYGVHWVRQAPGKGLEWVAVIWNDGSKEYYGDSVKGRFTISRDNSRNTLYLQMNSLRVDDTAVYFCARDGIPDPERGDYGGLDYWGQGTLVTVSS
VL: QTVVTQFPSSPFASVGDGVTITCRARQSISSYVNWYQQKPGKAPKLLIYATSSLQSGVPSRFSGSGYGTDFTLTISGLQPEDFATYYCQQSYSFPRTFGQGTKVEIK
B7: 2B4 (antibody, V domains shown)
VH: QVQLVQSGSELKKPGASVKVSCKASGYSFTSYSINWVRQAPGQGPEWMGWIDTNTGNPTYAQDFAGRFVFSLDTSVTTAYLQISSLKAGDTAVYYCATYYVDLWGSYRQDYYGMDVWGH
VL: QSVLTQPPSASGTPGQRVTISCSGGSSNIGSNPVNWYQMVPGTAPKLLLYTNNQRPSGVPDRFSGSKSGTSASLAINGLQSEDEADYYCAVWDDSLSGRWVFGGGTKVTVL
B8: 4J21 (antibody, V domains shown)
VH: QVQLVQSGSELKKPGASVKVSCKASGYSFTSYSINWVRQAPGQGPEWMGWIDTNTGNPTYAQDFAGRFVFSLDTSVTTAYLQISSLKAGDTAVYYCATYYVDLWGSYRQDYYGMDVWGHGTLVTVSS
VL: B7 VL with L4V, A10V, R17G, V108L
B9: 3A2 (antibody, V domains shown)
VH: QVQLVQSGGGVVQPGRSLRLSCAASGFTFSNYVMEWVRQAPGKGLEWVAVISYDGSNKYYADSVKGRFTISRDNSKNTLYLQMNSLRAEDTAVYYCARSEWESSYGSGNYYTDYFYYYAMDVWGPGTLVTVSS
VL: QAVVTQSPLSLPVTPGEPASISCRSNQSLLRGIRYNYLDWYLQKPGQSPQLLIYLGSNRASGVPDRFSGSGSATDFTLKISRVEAEDVGVYYCMQALQTPTTFGQGTRLEIK
B10: 4J14 (antibody, V domains shown)
VH: QVQLVQSGAEVKKPGSSVKVSCKASGGTSSTYAISWVRQAPGQGLEWMGGSIPVFATVNYAQKFQGRLTITADESTSTVYMELSSLRSEDTAVYFCASPYCSSMNCYTTFYYFDFWGQGTLVTVSS
VL: QAVVTQPASVFGFPGQSITISCTGTSSDFGTYNYVSWYQQHPGQAPKLMIFDVSNRPSGVSNRFSGSKSGNTASLTISGLQAEDEASYYCSSYTSGSTLYGGGTKLTVL
B11: 3E23 (antibody, V domains shown)
VH: QVQLVQSGPGLVKPSDTLSLTCSVSSDALRSRSYYWGWVRQPPGKGLEWIGTVSYSGGTYYNPSLQSRVTVSVDTSKNHFSLRLNSVTAADAAVYYCARSYFYDGSGYYYLSYFDSWGQGTLVTVSS
VL: QAVVTQEPSLTVSPGGTVTLTCASSTGAVTSGHYPNWFQQKPGQPPRALIYSTDNKHSWTPARFSGSLLGVKAALTLSDVQPEDEADYYCLLHFGGVVVFGGGTKLTVL
B12: 8G18 (antibody, V domains shown)
VH: QVQLVQSGAQVKKPGSSVKVSCKPSGGTFNNNGISWVRQAPGQGLEWMGGIVPNFGTPTYGQDFQGRVTITADESTSTVFLELTRLRSDDTAVYFCARGRTAVTPMQLGLQFYFDFWGRGTLVTVSS
VL: QTVVTQEPSLTVSPGGTVTLTCSANSGAVTSDYYPNWFQQKPGQAPRALIYSASNKFSWTPARFSGSLLGGKAALTLSGAQPEDEAEYYCLVYSGDGVVFGGGTKLTV

Tests used:
[1] = biological target: CHIKV strain RSU1 (Asian genotype) (Chikungunya virus strain RSU1); experiment: cell-based or functional assay
[2] = biological target: CHIKV strain LR2006 OPY1 (LR) (ECSA genotype) (Chikungunya virus strain LR2006 OPY1); experiment: cell-based or functional assay
[3] = biological target: CHIKV strain NI 64 IbH 35 (West African genotype) (Chikungunya virus strain NI 64 IbH 35); experiment: cell-based or functional assay
CHIKV p62-E1 = CHIKV p62-E1 (Chikungunya virus); experiment: SPR (Biacore T100), IgG captured by anti-human IgG, p62-E1 injected
[4] = biological target: CHIKV strain 99659 (Asian genotype, 2014 Caribbean) (Chikungunya virus strain 99659); experiment: cell-based or functional assay

| Binder | Neutralization (FRNT), EC50 [1] [ng/mL] | Neutralization (FRNT), EC50 [2] [ng/mL] | Neutralization (FRNT), EC50 [3] [ng/mL] | Kd (CHIKV p62-E1) [nM] | koff (CHIKV p62-E1) [s⁻¹] | kon (CHIKV p62-E1) [M⁻¹ s⁻¹] | t1/2 (CHIKV p62-E1) [min] | Neutralization (FRNT), EC50 [4] [ng/mL] |
| --- | --- | --- | --- | --- | --- | --- | --- | --- |
| B1 | > 10000 | > 10000 | > 10000 | 4.59 | 0.000608 | 154000 | 19 | – |
| B2 | – | – | – | 0.54 | 0.000156 | 291000 | 74 | – |
| B3 | – | – | – | 0.95 | 0.000118 | 124000 | 98 | – |
| B4 | – | – | – | 3.79 | 0.000273 | 88000 | 42 | – |
| B5 | – | – | – | 0.49 | ~0.00086 | 1.75e+06 | 13 | – |
| B6 | 17.3 | 12.1 | 6.7 | 1.15 | 0.000911 | 790000 | 13 | 6.2 |
| B7 | 6.5 | 5.6 | 3.2 | – | – | – | – | 7 |
| B8 | 7.7 | 7.4 | 5.2 | 0.54 | 6.2e-05 | 119000 | 186 | 7.2 |
| B9 | – | – | – | 4.78 | 0.00101 | 212000 | 11 | – |
| B10 | – | – | – | 9.94 | 0.00153 | 161000 | 8 | – |
| B11 | – | – | – | – | 0.000267 | – | 43 | – |
| B12 | – | – | – | 0.48 | 0.000188 | 390000 | 62 | – |
